From patent US20250296971A1, “GASTRIC INHIBITORY PEPTIDE RECEPTOR LIGANDS” (priority 2021, published 2025)
*1 amine or outer side, *2 acyl side, *3 side chain or, on linkers, in order; H or OH if unused. Bridges are numbered along the chain shown (N, C = ends). Primed or numbered codes have the meaning given here. [ ]: non-standard residue; d: D form. The star is where a group is joined. TBMB(SCH2CH2NH-DOTA) = O=C(O)CN1CCN(CC(=O)O)CCN(CC(=O)NCCSCc2cc(C[*:1])cc(C[*:2])c2)CCN(CC(=O)O)CC1; Ttds = 1,13-diamino-4,7,10-trioxatridecan-succinamic acid, NCCCOCCOCCOCCCNC(=O)CCC(=O)*; DOTA(In) = O=C1CN2CCN3CCN(CC(=O)*)CCN(CC2)CC(=O)[O][In]([O]1)[O]C(=O)C3; DOTA(Lu) = O=C1CN2CCN3CCN(CC(=O)*)CCN(CC2)CC(=O)[O][Lu]([O]1)[O]C(=O)C3; (dE)(AGLU) = D-glutamic acid bearing 1-amino-1-deoxy-D-glucitol; APAc″ = 4-amino-1-carboxymethylpiperidine, NC1CCN(CC(=O)*)CC1; Pro(trans-4-NH2) = O=C([C@@H]1C[C@@H](N[*:3])CN1[*:1])[*:2]; DOTA = O=C(O)CN1CCN(CC(=O)O)CCN(CC(=O)*)CCN(CC(=O)O)CC1; 3MeBn = 3-methyl-benzylidene (derived from 1,3-xylene); 2Lut = 2,6-lutidylidene bridge between two thiols; Trp(5-Cl) = N[C@@H](Cc1c[nH]c2ccc(Cl)cc12)C(=O)O; Pyridine(2,6-diCH2) = c1cc(C[*:1])nc(C[*:2])c1; 2Lut″ = 2,6-lutidylidene linking two thiols; APAc = 4-amino-1-carboxymethylpiperidine; mXylylene = c1cc(C[*:1])cc(C[*:2])c1; LuDOTA = DOTA Lutetium(III) complex; Glutaryl = O=C(CCCC(=O)[*:2])[*:1]; AGLU = 1-amino-1-deoxy-D-glucitol; Hyp = O=C(O)[C@@H]1C[C@@H](O)CN1; Cysteamide = C(CS[*:3])N[*:1]; Suc = O=C(CCC(=O)[*:2])[*:1]; ZnDOTA = DOTA zinc complex; αMeS = C[C@](N)(CO)C(=O)O; Api = NC1(C(=O)O)CCNCC1; Nphe′ = N-phenylalanine; Thp = NC1(C(=O)O)CCOCC1; Aib = CC(C)(N)C(=O)O; Nleu′ = N-leucine; Sar = CNCC(=O)O

Target: human Gastric Inhibitory Peptide Receptor (human) (UniProt P48546)
Experiment: FACS competition with GIP-057 on CHO-K1-hGIPR cells; pIC50 category A: >8.0

Chain of human Gastric Inhibitory Peptide Receptor (human) (P48546 22-466 limits assumed): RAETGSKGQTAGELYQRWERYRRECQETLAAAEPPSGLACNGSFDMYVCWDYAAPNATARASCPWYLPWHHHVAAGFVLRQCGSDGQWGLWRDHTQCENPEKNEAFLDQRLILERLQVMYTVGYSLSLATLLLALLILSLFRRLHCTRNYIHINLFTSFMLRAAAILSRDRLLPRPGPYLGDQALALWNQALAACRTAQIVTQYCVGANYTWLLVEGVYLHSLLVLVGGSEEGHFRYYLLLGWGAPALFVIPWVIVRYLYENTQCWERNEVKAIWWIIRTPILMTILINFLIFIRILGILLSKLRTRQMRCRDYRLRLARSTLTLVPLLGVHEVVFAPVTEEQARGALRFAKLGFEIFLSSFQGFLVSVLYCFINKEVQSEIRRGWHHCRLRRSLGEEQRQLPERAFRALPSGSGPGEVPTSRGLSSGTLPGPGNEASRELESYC

Binder | pIC50 [pic50]
Ac-DW[Trp(5-Cl)][Pro(trans-4-NH2)]E[dL]C[Api](DOTA)LIC-NH2 (linker 7-11 via 2Lut″) [Ac-Asp-Trp-5Clw-Tap-Glu-leu-[Cys(2Lut)-Apc(DOTA)-Leu-Ile-Cys]-NH2] | > 8
{LuDOTA-APAc″}-DW[Trp(5-Cl)][Hyp]E[dL]C[Thp]LI[Cysteamide] (linker 7-11 via Pyridine(2,6-diCH2)) [LuDOTA-APAc-Asp-Trp-5Clw-Hyp-Glu-leu-[Cys(2Lut)-Thp-Leu-Ile-AET]] | > 8
Ac-DW[Trp(5-Cl)][Hyp]E[dL]C[Thp]LIC-{APAc-(dE)(AGLU)-NH2} (linker 7-11 via Pyridine(2,6-diCH2)) [Ac-Asp-Trp-5Clw-Hyp-Glu-leu-[Cys(2Lut)-Thp-Leu-Ile-Cys]-APAc-glu(AGLU)-NH2] | > 8
Suc-W[Trp(5-Cl)][Hyp]E[dL]C[Thp]LIC-{APAc-Lys(LuDOTA)-NH2} (linker 6-10 via 2Lut; also: Lu complex of DOTA) [HO-Succinyl-Trp-5Clw-Hyp-Glu-leu-[Cys(2Lut)-Thp-Leu-Ile-Cys]-APAc-Lys(LuDOTA)-NH2] | > 8
{LuDOTA-Ttds}-DW[Trp(5-Cl)]PE[dL]C[Thp]LI[Cysteamide] (linker 7-11 via mXylylene) [LuDOTA-Ttds-Asp-Trp-5Clw-Pro-Glu-leu-[Cys(3MeBn)-Thp-Leu-Ile-AET]] | > 8
{DOTA(In)-Ttds}-DW[Trp(5-Cl)]PE[dL]C[αMeS]LI[Cysteamide] (linker 7-11 via 3MeBn; also: DOTA as indium complex (InDOTA)) [InDOTA-Ttds-Asp-Trp-5Clw-Pro-Glu-leu-[Cys(3MeBn)-Ams-Leu-Ile-AET]] | > 8
Suc-W[Trp(5-Cl)][Hyp]E[dL]C[Thp]LIC-{APAc-Lys(InDOTA)-NH2} (linker 6-10 via 2Lut; also: In complex of DOTA) [HO-Succinyl-Trp-5Clw-Hyp-Glu-leu-[Cys(2Lut)-Thp-Leu-Ile-Cys]-APAc-Lys(InDOTA)-NH2] | > 8
Ac-DW[Trp(5-Cl)][Nleu′]E[dL]C[Thp]LIC-NH2 (linker 7-11 via Pyridine(2,6-diCH2)) [Ac-Asp-Trp-5Clw-Nleu-Glu-leu-[Cys(2Lut)-Thp-Leu-Ile-Cys]-NH2] | > 8
Suc-W[Trp(5-Cl)][Hyp]E[dL]C[Api](DOTA(Lu))LI[Cysteamide] (linker 6-10 via 2Lut; also: Lu complex of DOTA) [HO-Succinyl-Trp-5Clw-Hyp-Glu-leu-[Cys(2Lut)-Apc(LuDOTA)-Leu-Ile-AET]] | > 8
{LuDOTA-Ttds}-DW[Trp(5-Cl)]PE[dL]C[αMeS]LI[Cysteamide] (linker 7-11 via mXylylene) [LuDOTA-Ttds-Asp-Trp-5Clw-Pro-Glu-leu-[Cys(3MeBn)-Ams-Leu-Ile-AET]] | > 8
{AGLU-Glutaryl}-DW[Trp(5-Cl)][Hyp]E[dL]C[Api](ZnDOTA)LI[Cysteamide] (linker 7-11 via Pyridine(2,6-diCH2)) [AGLU-Glutar-Asp-Trp-5Clw-Hyp-Glu-leu-[Cys(2Lut)-Apc(ZnDOTA)-Leu-Ile-AET]] | > 8
{DOTA(In)-Ttds}-DW[Trp(5-Cl)]PE[dL]C[Aib]LI[Cysteamide] (linker 7-11 via 3MeBn; also: DOTA as indium complex (InDOTA)) [InDOTA-Ttds-Asp-Trp-5Clw-Pro-Glu-leu-[Cys(3MeBn)-Aib-Leu-Ile-AET]] | > 8
{LuDOTA-Ttds}-DW[Trp(5-Cl)][Hyp]E[dL]C[Aib]LI[Cysteamide] (linker 7-11 via mXylylene) [LuDOTA-Ttds-Asp-Trp-5Clw-Hyp-Glu-leu-[Cys(3MeBn)-Aib-Leu-Ile-AET]] | > 8

More lines, now with the values ahead:

pIC50 [pic50] | Binder
> 8 | Ac-DW[Trp(5-Cl)][Hyp]E[dL]C[Thp]LIC-OH (linker 7-11 via Pyridine(2,6-diCH2)) [Ac-Asp-Trp-5Clw-Hyp-Glu-leu-[Cys(2Lut)-Thp-Leu-Ile-Cys]-OH]
> 8 | Ac-DW[Trp(5-Cl)][Hyp]E[dL]C[Api](DOTA)LIC-NH2 (linker 7-11 via Pyridine(2,6-diCH2)) [Ac-Asp-Trp-5Clw-Hyp-Glu-leu-[Cys(2Lut)-Apc(DOTA)-Leu-Ile-Cys]-NH2]
> 8 | DWXXEXCXLIC (N-term AGLU-Glutar; 5Brw; Tap; leu (D-Leu); thioether cycle [Cys(2Lut)..Cys]; Apc(DOTA); C-term APAc-glu(AGLU)-NH2) [AGLU-Glutar-Asp-Trp-5Brw-Tap-Glu-leu-[Cys(2Lut)-Apc(DOTA)-Leu-Ile-Cys]-APAc-glu(AGLU)-NH2]
> 8 | Ac-DW[Trp(5-Cl)][Hyp]E[dL]C[Thp]LIC-NH2 (linker 7-11 via TBMB(SCH2CH2NH-DOTA)) [Ac-Asp-Trp-5Clw-Hyp-Glu-leu-[Cys(tMeBn(DOTA-AET))-Thp-Leu-Ile-Cys]-NH2]
> 8 | Ac-DW[Trp(5-Cl)][Hyp]E[dL]C[Thp]LIC-NH2 (linker 7-11 via Pyridine(2,6-diCH2)) [Ac-Asp-Trp-5Clw-Hyp-Glu-leu-[Cys(2Lut)-Thp-Leu-Ile-Cys]-NH2]
> 8 | Ac-DW[Trp(5-Cl)][Sar]E[dL]C[Thp]LIC-NH2 (linker 7-11 via Pyridine(2,6-diCH2)) [Ac-Asp-Trp-5Clw-Nmg-Glu-leu-[Cys(2Lut)-Thp-Leu-Ile-Cys]-NH2]
> 8 | Ac-DW[Trp(5-Cl)][Nphe′]E[dL]C[Thp]LIC-NH2 (linker 7-11 via Pyridine(2,6-diCH2)) [Ac-Asp-Trp-5Clw-Nphe-Glu-leu-[Cys(2Lut)-Thp-Leu-Ile-Cys]-NH2]
